Four substances from patent US5770577 can be followed below.

This test deals with trkB.
Consider “monoMPEG(6 kDa)-BDNF conjugate with site of attachment at the N-terminal alpha-amino group(s) (Example 1) (ligand)”, for which the Activ. in vitro (MTS tetrazolium uptake by PC12/pcDneo-trkB#18 cells) was determined as 101%. The substance “monoMPEG(20 kDa)-BDNF conjugate with site of attachment at the N-terminal alpha-amino group(s) (Example 2) (ligand)” yielded an Activ. in vitro (MTS tetrazolium uptake by PC12/pcDneo-trkB#18 cells) of 73%.

Consider “polyMPEG(6 kDa)-BDNF conjugates with MPEG aldehydes, six-fold molar excess (Example 4) (ligand)”, for which the Activ. in vitro (MTS tetrazolium uptake by PC12/pcDneo-trkB#18 cells) is 25%. For the substance r-metHuBDNF (ligand), the Activ. in vitro (MTS tetrazolium uptake by PC12/pcDneo-trkB#18 cells) is 100%.
